Measurements published in the supplement of paper PMC12042874.
± gives the uncertainty stated by the source.

Test: amyloid nucleation score (Sup35N fusion, yeast selection) (log enrichment); library NNK2; higher = more nucleation; inactive = no reads after selection
In short: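 The nucleation score equals the log enrichment of output over input reads from DiMSum, centred on the mode score of non-aggregating sequences. It was computed only for sequences with 100 or more input reads. The reads came from Illumina sequencing of plasmid inserts from psi-negative yeast expressing Sup35N fused to peptides of 20 random codons, induced with 100 μM copper sulfate for 24 hours and grown 7 days at 30°C without adenine and uracil.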

Substance	amyloid nucleation score
EVVAISNTASICLYSNYKH	5.04 ± 0.1
EWSRGLCTVQLA	0.058 ± 0.65
EWVRWLVVLNLRSNAGNYDI	-0.953 ± 0.54
EYMTMDELDWWSRQCFGWAQ	1.64 ± 0.42
EYQLDHVY	-0.711 ± 1.1
EYSNFVTNEYEWIVGPTWSS	6.317 ± 0.026
EYTIFTDLLLYDFKWLEYVW	0.561 ± 0.62
EYVADHGQIADGR	0.782 ± 0.26
FAFKTLVWHRGVCRFPGARL	inactive
FAIGR	-0.077 ± 0.36
FARGMVRSSTGTM	-1.88 ± 0.44
FASCRIVSRG	inactive
FAWGPFA	-0.557 ± 0.37
FCAYVAWLSSWNIQPAKGRG	1.1 ± 0.35
FCFLKFCMLHRLLVFLWRQF	1.54 ± 0.11
FCGQKTNFNCLDETLLIR	1.09 ± 0.59
FCILSWGLSVRYSRVPLNYK	1.14 ± 0.18
FCISFRTRSDPRSHSSGAIE	0.498 ± 0.54
FCMADVYSGTLRNNYHTSEV	-0.986 ± 0.31
FCNVKLLLVGWCRVSVKKGV	2.12 ± 0.28
FCSGLYHVYAD	2.28 ± 0.15
FCSHMLARTYLKCGREDR	-0.337 ± 1
FCSSIVMVNSQCFVKSFSTK	6.311 ± 0.028
FCVIAQYAQVPMSCWGWLES	-0.191 ± 1.1

Substance	amyloid nucleation score
FCWFRLLEYFSR	-0.201 ± 0.45
FDAQNSWSWHRSWQNVFRKG	1.54 ± 0.22
FDDLLEARYSFSVKVCY	-0.947 ± 0.35
FDILDCDNLELGLYIFILDL	-1.14 ± 1
FDIPCSFVPVYHIKAFLCRM	-0.353 ± 0.79
FDLNSTVWIRCGGLILRLKP	0.01 ± 0.25
FDTGSRYFFNELRGGNCHCW	1.26 ± 0.21
FDVSWMARVELSIM	-0.018 ± 0.33
FDWISVRGTGWFCLRWWLYV	inactive
FEAYYWLADLNLLCYLGVRS	3.79 ± 0.052
FEDIFCWVY	-1.79 ± 0.76
FEFVYFVRSIG	-0.129 ± 0.5
FEGFNAMVSGLRYSSMGCFH	0.334 ± 0.25
FESFLTLYIIYTGAANNSWV	4.01 ± 0.087
FEVYKANDIEIYYAVCEMGV	-1.34 ± 0.26
FEYLYYIDIYLWYCEGRVAK	-0.661 ± 0.54
FFCFFKIYFWMRAAGTSLNR	-0.861 ± 1
FFCLIVLVANVTCCGRDEGP	5.32 ± 0.055
FFEFKDNSSWFK	3.3 ± 0.052
FFFMTKNFKIFTSALDVPSE	-1.14 ± 1.1
FFFNVSLHVRNFLEEVSVAS	inactive
FFFNYLSCLRNAVNWFNRGM	inactive
FFGRGSHKAGYYSCTTSLTQ	1.07 ± 0.16
FFLLAGVLDWAYGWYYIVWK	0.147 ± 1.1

Substance	amyloid nucleation score
FFMGGMRASNMDYATSWLK	4.3 ± 0.099
FFTGFDLVPVSYI	inactive
FFVPYDSYTYHLILFLKQLV	-0.535 ± 0.53
FGDYPNSLKWLQE	-0.558 ± 0.63
FGFYFLVSGLCRCDLPFHVL	-0.757 ± 0.76
FGHNGRICKRLMEVPIFERA	-0.655 ± 0.32
FGINSLYINKWSDRLRQCTR	-0.142 ± 0.79
FGIQGWLFSNSWFLILVFFL	inactive
FGMYPVVGCLDRLYWMRLYA	0.539 ± 0.81
FGRRLQGRHINSNDQWGRQA	0.339 ± 0.61
FGRWHYLQRGFKRSGVHFNR	inactive
FGTYSI	0.389 ± 0.74
FGVHVRCSEDDMAFALDLD	0.155 ± 0.28
FGVIICAMSCQKD	7.501 ± 0.026
FGVTHVSWIQERVTADGAER	0.998 ± 0.39
FGYAVVQRYYKWWIAMNTQA	-0.04 ± 0.42
FHMRFMMVFIRLKTRTKLIL	-0.797 ± 0.42
FHSPLCSCQSSLKVEWGHSE	inactive
FIADIVYLMNFGEIWG	4.68 ± 0.1
FIADLSDMW	-0.916 ± 1.1
FIARDRLMTDRTRGKPSWEG	0.231 ± 0.3
FIERSSLEDNVSSALAISR	0.704 ± 0.47
FIFKGNQWKVFVFL	2.83 ± 0.068
FIFVVMVMVWFWTGLCLSYN	inactive

Substance	amyloid nucleation score
FILCMTSWDYLDDCRFLFEL	1.03 ± 0.25
FINKIKVRLNLMSGSANRLL	4.57 ± 0.11
FINLYRVGVVCFILNKVGYF	3.71 ± 0.052
FISMNLEVSN	-0.26 ± 1
FISSVIIGYSDPGVEGILLV	-0.922 ± 0.78
FIYLIMFCKMVQWTIAFFKA	-0.658 ± 0.64
FKIAGRI	inactive
FKNAWFLATFNPTT	-0.104 ± 0.23
FKRSTCNLR	-0.479 ± 0.29
FKSTNLMAWIFGMYIVFLGF	-0.08 ± 1
FLFMLLSPVSMARLDKVMMG	0.313 ± 0.65
FLLDAPKLAEDEYPHGSDDN	inactive
FLLNIDTFSLMRSVTANTLV	-0.697 ± 0.48
FLMRDFGMWFLFSNLLYITL	-0.628 ± 0.48
FLMSTSLRSCICCVLLPSDN	8.908 ± 0.032
FLNESGSFWCSGFLIWVMRM	-0.568 ± 0.76
FLNFIFELSSWMDF	-1.6 ± 1.1
FLPCL	-0.739 ± 1
FLQLLDNFALLDLVG	-0.12 ± 0.79
FLSDATAYH	inactive
FLSRSQRCMIG	0.313 ± 0.64
FLSSSGRFSIVYSLFYEWIP	-0.674 ± 0.76
FLSVEENGLTDVTVMGWFV	0.19 ± 1.1
FLVIVTVNLMYESQRMGSPV	inactive

Substance	amyloid nucleation score
FLWHCYNFLKAGS	inactive
FLYLIMKGPLAVKYCIKSLG	-0.545 ± 0.76
FLYMQTMLCNSKVFQVSALC	inactive
FLYQEPSSCVTTAKISGLMA	inactive
FLYTCF	0.509 ± 0.25
FMECVSNNRMELVAGNEKGC	0.082 ± 0.27
FMFPGRRPFPIAMWELRFFS	-0.427 ± 1.1
FMGRMTLGHKNAWVSSDRH	-1.33 ± 0.79
FMGVKRVVTRVVCLQIGQPT	7.11 ± 0.071
FMQGPFNYTRMLSL	-0.808 ± 1.1
FMRWSRISRSGYNDDGSLVG	3.52 ± 0.067
FMTLAGFSGAVEASGADWRR	-0.606 ± 0.63
FMTVSDTMFHRIVASPQVPA	0.87 ± 0.32
FMVILYLDSLSLPWNWIVFG	0.098 ± 0.54
FNALTVDQTVHSYGVYADLP	0.191 ± 0.21
FNCEGLVNS	-1.25 ± 0.64
FNDHWARRRRDFVNIWFWSE	-0.047 ± 1.1
FNDRKYESCDSDDC	-1.99 ± 0.62
FNISSNVICDNFRDPLVESD	-1.87 ± 0.78
FNMVNTILMNGPSCWLQSVP	0.21 ± 0.63
FNRGKVMCVAYNGCSRYLMD	-1.64 ± 0.75
FNSSLWVFRIPNCCNRSAYC	inactive
FNTCGSHRSGRRFL	inactive
FNVLIACWGYKDNFNVYSCE	5.844 ± 0.035

Substance	amyloid nucleation score
FNYDSLVSTRAYPFWTVTVF	1.52 ± 0.43
FQCNCTLSQIAWNKSQGQSS	-0.363 ± 1.1
FRCIDFR	0.674 ± 0.65
FREVRRF	0.631 ± 0.41
FRFPFFVQWFFCLSGSQRAR	inactive
FRIGHSHGYLLM	-0.805 ± 1.1
FRIKAEVGPIYTYDTGSFNW	-0.162 ± 0.27
FRIPRWFKTS	-0.284 ± 1.1
FRLPNVLRDGSA	1.41 ± 0.41
FRLSHFILVSHYLNNYEDSF	inactive
FRMLNRFLWFKVKMGYMHYG	-0.618 ± 0.42
FRNFELSRTFVVYNPVLQCY	-0.473 ± 0.39
FRPHQVV	inactive
FRRRRIFYYITEHVLLCMLK	-0.5 ± 0.64
FRRYYLLFVPAFCVPLKCQY	0.53 ± 0.66
FRSKPAFRVMGVVCRGFYFL	-0.637 ± 1.1
FRTTALLRFKRWDYGVIRNR	0.021 ± 0.46
FRVRRGLASGR	1.28 ± 0.3
FRWYFNVAATCGNRAPGRNV	1.31 ± 0.18
FRYFDWCIFYSYLLVCY	-1.96 ± 1.1
FRYFSVP	-0.52 ± 0.36
FSCHWAIMTRSGKVEVCNNQ	5.47 ± 0.069
FSDIWPLRP	0.806 ± 0.15
FSEWRIGKNMIFCDVIDVCE	1.94 ± 0.089

Substance	amyloid nucleation score
FSFEWMFWGWTCNQGTDVVS	-0.319 ± 0.54
FSFIGFLNRNKSAALCKMDI	-1.16 ± 0.76
FSFLHFVERLTGHLIYFSRF	inactive
FSFLKLIADPATLVIGTDSW	-0.492 ± 0.3
FSFVTFSGNRFDFLLLRPCT	inactive
FSGFYLWSVDFVMLLGAWAH	inactive
FSGIYESPMVLHMV	-1.97 ± 0.62
FSGLGDCEVMYVFVNNRLGW	-0.699 ± 1
FSIKPLGQKDIR	5.47 ± 0.073
FSKHNSYGTNINNLFFSLLH	6.19 ± 0.077
FSKIIHDSALVNISWMHDGS	0.844 ± 0.56
FSLICIKIHEKGWQGEG	4.17 ± 0.065
FSLWSLERLKPIGLSSRMSG	3.45 ± 0.16
FSLYN	-1.64 ± 0.75
FSMLRVYHLRPDLRVFCCAF	-0.108 ± 1.1
FSMPLLALAFLL	inactive
FSMVT	0.057 ± 0.63
FSRCTSVEV	-0.699 ± 1
FSRSYVPIMY	0.759 ± 0.8
FSRTSPIRQMIWKFLDCQPA	-0.978 ± 0.41
FSSATDVCDGSRSIIRIAGA	-0.283 ± 1
FSSSFVVWALYPVTFHLTRS	0.112 ± 0.4
FSSSI	inactive
FSTQGTFVSVHGVADLAVCF	inactive
